The target of the experiment is Human Myelin Basic Protein (Homo sapiens, UniProt P02686). Briefly: Phage display library screening (Example 2, Python script analysis), binding to Human Myelin Basic Protein. The arrangement: Enzo 200-606-M001 from human; purchased Enzo 200-606-M001; host or cells: human brain (tissue-derived). The note with it: R3 Myelin Basic Protein; combined unique sequence count, Python/R script analysis. As to the method:
Phage display library screens were used to identify peptides that bind to target proteins (including specific laminin trimers) that are expressed in human nerves, as described in Table 3. These screens were also carried out to identify peptides that could bind selectively to nerves versus muscle. Such peptides could therefore be useful for systemic in-vivo labeling of nerves during fluorescence assisted surgery. Specifically, m 13 phage libraries expressing 7 or 12 random amino acid peptides, or a cyclic peptide CX7C, on the N-terminus of the minor coat protein pIII (New England Biolabs; NEB) were processed through multiple rounds of selection for binding to target proteins expressed in nerves, or to excised human nerves, nerve extracts, or muscle, as described further below.
For screening against the specified target proteins in Table 1, including LN211, LN411, LN421, and LN521, the phage library was processed by up to 4 binding and wash cycles. For selection, phage libraries were incubated for up to 24 hours at 4° C. in 96 well plates that had been coated with one of the target proteins. Plates were then washed with PBS and phage were eluted using 0.2M glycine pH 2.0. Phage supernatants where then neutralized with Tris pH 9.0 prior to plating on TGI bacteria and LB agar plates. Colonies were counted to determine titer followed by DNA preparation of pools of phage and NextGen sequencing. After rounds of selection, phage were pooled and amplified for iterative selection. Phage that were bound at each round were sequenced. NextGen sequencing of pools after 2, 3 and 4 rounds of selection was used to isolate candidate sequences that were analyzed further to identify those that specifically bound each unique target protein.
Python Script Analysis: For all NEB sequence datasets, a python script was used to translate, trim, and filter the peptide sequences. The script translated the nucleotide sequences, translating amber codons as glutamine in peptide sequences, and then trimmed the end sequences that come from the vector. Secondly, the script combined the unique counts of trimmed peptides with identical sequences. […] Another python script was used to group peptides from different assays according to protein target (Myelin Protein Zero, Myelin Proteolipid Protein, Myelin Basic Protein, and Nidogen-2) and also combine the unique sequence counts for each peptide. An R script was written to merge the peptide sequences from different data files and determine peptides specific for each protein target but absent from different protein binding datasets. Peptide sequences were ranked by unique sequence count.
Human Myelin Basic Protein, sequence (P02686 134-304): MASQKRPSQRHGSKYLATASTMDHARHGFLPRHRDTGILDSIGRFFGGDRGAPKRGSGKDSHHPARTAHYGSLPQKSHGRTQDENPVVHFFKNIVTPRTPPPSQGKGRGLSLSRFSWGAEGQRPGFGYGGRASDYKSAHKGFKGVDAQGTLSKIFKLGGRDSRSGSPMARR
Take “HPTGTPT (R3 Myelin Basic Protein-binding peptide)”: the Count is 7.

Turning to “HPWLGNR (R3 Myelin Basic Protein-binding peptide)”, the Count was 9.

As to “HPWSHPN (R3 Myelin Basic Protein-binding peptide)”, the Count was 6.

As for “HQMRTML (R3 Myelin Basic Protein-binding peptide)”, the Count is listed as 6.

“HQPLFPR (R3 Myelin Basic Protein-binding peptide)”: the Count amounted to 6.

Regarding “HRTHLHQ (R3 Myelin Basic Protein-binding peptide)”, the Count was 6.

With “HSGPLLP (R3 Myelin Basic Protein-binding peptide)”, the Count is 6.

For “HSSATMS (R3 Myelin Basic Protein-binding peptide)”, the Count amounted to 6.

On to “HTGLRSL (R3 Myelin Basic Protein-binding peptide)”, for which the Count is 7.

In the case of “HYSPNVM (R3 Myelin Basic Protein-binding peptide)”, the Count was 9.

Regarding “IGTRWHQ (R3 Myelin Basic Protein-binding peptide)”, the Count is recorded as 6.

Take “IILPSAQ (R3 Myelin Basic Protein-binding peptide)”: the Count is 8.

“INFPFAV (R3 Myelin Basic Protein-binding peptide)”: the Count is listed as 6.

Regarding “IPIPYRT (R3 Myelin Basic Protein-binding peptide)”, the Count was 6.

With “IPYSQMP (R3 Myelin Basic Protein-binding peptide)”, the Count turned out to be 6.

Take “KGQPLFR (R3 Myelin Basic Protein-binding peptide)”: the Count came to 7.

Take “KIITTKS (R3 Myelin Basic Protein-binding peptide)”: the Count amounted to 6.

In the case of “KMSLAPP (R3 Myelin Basic Protein-binding peptide)”, the Count was found to be 6.

In the case of “KNSIAPR (R3 Myelin Basic Protein-binding peptide)”, the Count was 8.

Take “KVHHLAR (R3 Myelin Basic Protein-binding peptide)”: the Count worked out at 6.

Consider “KYRHGAE (R3 Myelin Basic Protein-binding peptide)”, for which the Count came out at 7.

“LELHQNV (R3 Myelin Basic Protein-binding peptide)”: the Count is on record as 6.

On to “LFRRVTE (R3 Myelin Basic Protein-binding peptide)”, for which the Count worked out at 7.

As to “LITHPQL (R3 Myelin Basic Protein-binding peptide)”, the Count was 6.

In the case of “LMLPQLE (R3 Myelin Basic Protein-binding peptide)”, the Count was 6.

As to “LPPQISR (R3 Myelin Basic Protein-binding peptide)”, the Count was determined as 8.

Take “LTKSLNH (R3 Myelin Basic Protein-binding peptide)”: the Count turned out to be 7.

For the substance “LVPPVNH (R3 Myelin Basic Protein-binding peptide)”, the Count is given as 6.

With “MDLSLKP (R3 Myelin Basic Protein-binding peptide)”, the Count is given as 10.

As to “MNSPLAQ (R3 Myelin Basic Protein-binding peptide)”, the Count is 6.

Consider “MPLLELP (R3 Myelin Basic Protein-binding peptide)”, for which the Count was determined as 7.

For the substance “MPSLKHQ (R3 Myelin Basic Protein-binding peptide)”, the Count is reported as 8.

Turning to “MQRLGAD (R3 Myelin Basic Protein-binding peptide)”, the Count worked out at 6.

In the case of “MTNHGNA (R3 Myelin Basic Protein-binding peptide)”, the Count was 7.

For the substance “NFAQHMQ (R3 Myelin Basic Protein-binding peptide)”, the Count amounted to 9.

Regarding “NGPNSLQ (R3 Myelin Basic Protein-binding peptide)”, the Count is 6.

For “NGVSSSL (R3 Myelin Basic Protein-binding peptide)”, the Count came to 6.

In the case of “NLKLWTR (R3 Myelin Basic Protein-binding peptide)”, the Count stood at 7.

With “NLLQGVM (R3 Myelin Basic Protein-binding peptide)”, the Count was determined as 7.

Turning to “NLTYLRF (R3 Myelin Basic Protein-binding peptide)”, the Count came out at 6.

As to “NMYPRVT (R3 Myelin Basic Protein-binding peptide)”, the Count is on record as 7.

Turning to “NPTDTNK (R3 Myelin Basic Protein-binding peptide)”, the Count came out at 8.

For the substance “NSSPHQI (R3 Myelin Basic Protein-binding peptide)”, the Count amounted to 7.

Consider “NTPKVLA (R3 Myelin Basic Protein-binding peptide)”, for which the Count was 10.

On to “NTSLSFK (R3 Myelin Basic Protein-binding peptide)”, for which the Count is given as 8.

Regarding “QGAYVRP (R3 Myelin Basic Protein-binding peptide)”, the Count was determined as 6.

As for “QGTLFDT (R3 Myelin Basic Protein-binding peptide)”, the Count came out at 7.

Regarding “QKALPQT (R3 Myelin Basic Protein-binding peptide)”, the Count came out at 6.

Turning to “QNSYLSN (R3 Myelin Basic Protein-binding peptide)”, the Count was determined as 8.

With “QPIDSTS (R3 Myelin Basic Protein-binding peptide)”, the Count is 7.

“QQAHLQS (R3 Myelin Basic Protein-binding peptide)”: the Count is given as 8.

On to “QTSIMSG (R3 Myelin Basic Protein-binding peptide)”, for which the Count was 6.

On to “QYWDILG (R3 Myelin Basic Protein-binding peptide)”, for which the Count was 6.

Consider “RGHPSQL (R3 Myelin Basic Protein-binding peptide)”, for which the Count is recorded as 6.

In the case of “RSRKHRP (R3 Myelin Basic Protein-binding peptide)”, the Count was 6.

As to “RTTDWWT (R3 Myelin Basic Protein-binding peptide)”, the Count came to 6.

For the substance “RVIPSTT (R3 Myelin Basic Protein-binding peptide)”, the Count is recorded as 6.

Turning to “SAVLMPP (R3 Myelin Basic Protein-binding peptide)”, the Count is 6.

For “SEGLTLL (R3 Myelin Basic Protein-binding peptide)”, the Count came to 6.

Consider “SEPGTVR (R3 Myelin Basic Protein-binding peptide)”, for which the Count is given as 7.

As to “SGNLKKA (R3 Myelin Basic Protein-binding peptide)”, the Count stood at 7.

Consider “SGPFPLV (R3 Myelin Basic Protein-binding peptide)”, for which the Count worked out at 6.

For the substance “SIAEVLGLWRNV (R3 Myelin Basic Protein-binding peptide)”, the Count is recorded as 7.

For “SIQTSAM (R3 Myelin Basic Protein-binding peptide)”, the Count came out at 6.

In the case of “SIRMTEI (R3 Myelin Basic Protein-binding peptide)”, the Count came to 7.

As for “SISKIRT (R3 Myelin Basic Protein-binding peptide)”, the Count worked out at 7.

As to “SKLAGFP (R3 Myelin Basic Protein-binding peptide)”, the Count was determined as 6.

As to “SKPHASH (R3 Myelin Basic Protein-binding peptide)”, the Count came to 6.

As to “SLDHLRL (R3 Myelin Basic Protein-binding peptide)”, the Count is 6.

With “SLKTTNP (R3 Myelin Basic Protein-binding peptide)”, the Count is on record as 6.

In the case of “SLRSVGA (R3 Myelin Basic Protein-binding peptide)”, the Count stood at 7.

With “SLWQTLR (R3 Myelin Basic Protein-binding peptide)”, the Count is reported as 6.

On to “SLWTHRT (R3 Myelin Basic Protein-binding peptide)”, for which the Count is 6.

As to “SNAERWR (R3 Myelin Basic Protein-binding peptide)”, the Count was 9.

“SNAHTLP (R3 Myelin Basic Protein-binding peptide)”: the Count is 6.

As to “SPKPDIP (R3 Myelin Basic Protein-binding peptide)”, the Count is 6.

For the origin of these results see patent US20240207421A1, “NERVE TARGETING PEPTIDES AND METHODS OF USE” (ALUME BIOSCIENCES, INC., priority 2020, published 2024).
